Results from the DeepSol protein solubility set.

Assay: soluble on expression in E. coli; label from the status in PepcDB or PDB records

Row | Sequence | soluble on expression in E. coli
1 | MSLNFTLHTLNGIKLWLVLLLLSGAINVCRADSPRQTINFNRGWKYCQGDFDHAARPGFDDSEWEKIGLPHSFSTPYFMSKDFYVGYGWYRKAFPVKKEILGKKSFLEFDGVFQEAEIFVNGHLAGTHKGGYTGFSIDISAYLKEGKNLVAVRVNNCWRPDLAPRAGEHVFSGGIYRNVRLVIKPPTYIDWYGTWITTPDLAENKGKSGSVHIRTDVCNASGKTDTYRLLTTVVDAQGKEVSSVSTSQVLPDNATYTFEQQTKEIQAPQLWHPNHPALYKVISSLYHGQELIDRYETAFGFRWFEWTADRGFFLNGEHLYFKGANVHQDHAGWGDAVTETGMRRDIRLVKEAGFDLIRGSHYPHSPAFSQACDEIGMLFWAENAFWGIGGHKGDGYWNASAYPVNESDRAEFENSVKAQLKELIRIHRNHPSIIVWSMSNEPFFTAPETINPMRKLLEETVKLSKQLDPTRPAAVGGAQRPLGEKRIDKLGDIAGYNGDGSYIPEFQQPGMPTVVSEYGSTTADRPGEYDPGWGDLAKNNAQNGFPWRSGQAIWCAFDHGSIAGSALGKMGIIDYFRIPKRAWYWYRNAYKGITEGHHHHHH | not soluble
2 | MGSDKIHHHHHHVKELHESSTIISFKEHTDVNADSILELSFLKLQTKDSCLVKNVGLIRELNNCLLILDSANSNLYVFNKSGAFVNQIGQKGSGPGEYILLSSFFVDNNKNYIAAIDIAQDKVLYYNATDFSFLYERRLPFSTSCCLQLEDGNLLWNSREYTDSKLSDFYFVVTDSLFDIIDYKMNKEFKSGYTTGPSQMIYKVGTNVFAYTPFDLTIYRVGTSEIVPAHSFSFEGTDIPSLDFLNKTSNQGNSNYLYDLIQSDYISYYCVEETERDLFVCYMKNKEKYIGLYDKNTDRTYNYPIKIFQDQLKVGELNYFSIGSVDDYHVAPLDVLSLKDMAGNGYVFDDKLSELLTISNEEDNSILLFVRIKK | not soluble
3 | MVSVSSEPVMPTALKILIAGGFGVGKTTMVGSVSEVPPLETEERMTAVSLGVDDLSGVEGKKSTTVAMDFGRITIAPELVLYLFGTPGQDRFWFMWDDLATGALAAIVLADTRRLDASFASIDFFEARDIPFAVGVNCFDGRRDCSAEQVRTALDLDPSTPVLLCDVRDRGSSKSVLLAVLEAARAQAAARLAPLGGGQLEHHHHHH | not soluble
4 | MGSDKIHHHHHHMENKVKTVAVFSGYYLPFLGGIERYTDKMTADLVKRGYRVVIVTTNHGDLPIIDEDKGRKIYRLPTKNIVKQRYPIINKNREYNTLMKYVSDENIDFVICNTRFQLTTLEGLSFAKNHHLPSIVLDHGSSHFSVNNRFLDFFGAIYEHLLTARVKHYRPDFYAVSKRSVEWLKHFNIEAKGVIYNSVSESLGSDFAGTAYLEKSADDIFITYAGRIIKEKGIELLLEAFSMSQYSENVYLQIAGDGPELAHLKEKYQSKQINFLGKLNFEQTMSLMAQTDIFVYPSMYPEGLPTSILEAGLLSSAIIATDRGGTVEVIDSPELGIIMEENTQSLHESLDLLVKDKALREKLQQNIAKRIKEHFTWEKTVEKLDYIIQKN | not soluble
5 | MGSDKIHHHHHHMKKIQIVDDSQSNIRKLENLLNTHFLVTVARTGEEAVRMAKENVPDLILLEVALPDMDGFETCRRLKAQVESAKIPVIFVSSLKEKEAVIKGFEVGGQDYIIKPFEARELVLRMKSLLKQESSRKRLEQHVKVLEEQNEKLKGKIQKVDRLSRVDFLTNLMNRRDMQEKIRAEINRSIRHGRSFTLAIVDIDFFKNINDTYGHDCGDHVLKHFVSTLKNSVRSSDYVSRWGGEEFLLLFPETKLEEGKRACEKIRQKINESPVIYKGMSISITATFGISEYRPSVRIEELIKAADDALYKGKKTGKNQVVVQSM | not soluble
6 | MSLKQPAVFFDKNVSTIEENNSLLDGQTDVPVLDPHDLLVEVQAVSVNPVDTKLRQTGVASKIKILGYDAFGIVKNTGKDVTRFHAGDRVYYAGTTQRPGSNEKFQAVDERLVGRAPEKLNKSEIAAMPLTSITAYEILVDQLGLRFQNHAADGKNMLVINGAGGVGSVLLQMAAYLGINLSVTAHSSESIEWLKKYSVDKIYDYENIDETLADQKFDYIVFLYDPALYWDIAIKHIKPYGQLVSIVGTNKPLNMGPLKNIAVQFKWEYMFAKSDFNHNILSQGQALDKIAILLDAGILKTTLNKTFDLINAENLRQAYKLVESGRMQGKVVLNGPFDKALKEGHHHHHH | soluble
7 | MIIQIEEYFIGMIFKGNQLVRNTIPLRREEIFNFMDGEVVSNPEDEHLKVAEIILKLYFAEIDDKKVRELISYKLEVPEFTKKVLDIVKDIEFGKTLTYGDIAKKLNTSPRAVGMALKRNPLPLIIPCHRVVAKNSLGGYSYGLDKKKFILERERLNMVSFKFNKVY | soluble
8 | MGSDKIHHHHHHMKLSMPRFDQAPVLVVGDVMLDRYWHGGTSRISPEAPVPVVKVDQIEDRPGGAANVALNIAALGAPASLVGVTGDDEAAESLTNSLKAAGVVARFQRIADQPTIVKLRVMSRHQQLLRIDFEEPFNTDPLALSAEVYSLLDGIKVLVLSDYGKGALKNHQALIQAARKRGIPVLADPKGKDFAIYRGASLITPNLSEFEAIVGHCEDEAQLVTKGAQLMQELDLGALLVTRGEHGMTLLRPDQQALHLPARAREVFDVTGAGDTVISTLAAAIAAGEELPHAVALANLAAGIVVGKLGTAAISAPELRRAIQREEGSERGVLGLEQLLLAVDDARAHKEKIVFTNGCFDILHAGHVTYLEQARAQGDRLIVAVNDDASVSRLKGPGRPINSVDRRMAVLAGLGAVDWVISFPEGTPENLLTHVKPDVLVKGGDYGIDQVVGADIVQAYGGEVRVLGLVENSSTTAIVEKIRGQG | not soluble
9 | MNRSTISPVEARQQFRAGLIQPTSGWSAGFAQANLISMPQDLAYDFLLFAQRNPKPCPILEVLNAGETFGGIFGSNATEADIRTDAPQYRIYAHGELIDSPASAVDYWRDDLVSFIIGCSFTFEHPMVQAGVPVRHLEAGRNVPMYETSLACRPAGSLSGNLVVSLRMIPASQVADAVRITSRYPAVHGAPVHIGDPSLIGIDDINNPDFGDAPLSEPSDVPVFWACGVTPQAMVMSSKPPLAITHAPGHMLITDAPDLGFQVPLEHHHHHH | not soluble
10 | SEERLNYIVFNQNISNMANKEVRQALSYALNRNEMIESAYGKEGSVPAKSILVPEADFYTEEGVEGYDQDTNKAKDLLDKSGVKIDKLKIGYNTGRFGHKNYALVAQQELKKIGIEAEIVPYESKAFFNILFSNSTECDMYVNGYAWGLEPNPYRGMFETGQYCNQTKYSNAEIDALWEKGFTELNKEKREEIYKQIQQDISKDAPIYTIDYEQNLMAAQKNL | not soluble
11 | MAHHHHHHMMRRVPITVSFDALDTLIQITRGLGYQYRSSYASFLLAHGIDLDATCPNATCEAVQELALKAIRDQVRAERAAWTRSANPKEMPIGGDTDEELRSFWARVLRQTYTCATLYDGAAADVVQRIEELWGDHHNEVRCFEDYVLFDQFSSTKAHSWCPEGLRTLQCLRKWNQVQMSCDESAVRPGLADTKPASDLDVFSPSSAAASPVLFLAAPPFVVSNMDPRIRGVFMQLGAFEAGESGEPPLLSRIISARDTGYAKPSPAGILTGVRDIAASYRAACQSCGACDAGVDVHRHVHVGDADADRVACERAGCHFVQCDPATGVTWGLLQAKLQELEALYGSAPLPH | not soluble
12 | MGSDKIHHHHHHMYGIVIVEDEELERQALRTILTENIDGIRILGEARTGTEAVALIDSCEIDLMLVDINIPNLNGLEVIRHLRDRHADTKVIITTAYDYFETTRTAIQLKVDEYLLKPIRTQALVTTIQSCIGQLGAGRQCRELVGRIADLVEQDGYQEGVTLVRRHIEWICTQRGHVPRDLILDFAGALVALARDKGLRLPDALTQQIGQLRTMPLDAQTGYQALGTFLGVVDLLFDVTGERFGYSSNTVKKVLNYIERNLTKRITLEDAAEYANISPSYLSRMFKKTLNVNFISYLTTRRIELAKETLIGTERPITAISQELSYSDVNYFCKSFKKEVGVSPTEYRRQSRLAQGAPPPREAALATG | not soluble
13 | MGSDKIHHHHHHMSEAINHGIIKSYVDGLTTSTLLMPNLPTAEHAVALAKNYPGLFVGQHTNFLLGKPCADPCMIPSLVDEQGNFHRSSYYRQQKQVTFVYEEVRLETIAQLTRFKELTGHYPEHFDCHSIGDEVVDQVFLELAEEYGLHTTLKYSGEKEYPPQQGYFQVTHLLESGALSYIHEGVSVENFLEDDFGLLRMPESAIAEMHFDVGYLDQFVLDNSSYTTLRCKELATICDPRVRQWFEEQGIERITFGDLKK | not soluble
14 | MASDENIGADGEQKPSRPFLRKGQGTARFRMPRNNKTSAGAPPTSELSSASSPSINVPRFSLSNALPNSARTVDSGISNEDETRPPTTASLPMDQPSLSSSPENRLNPAPSVAEEHGHSGQHAEEEEDNDTDEVSAMPSFVPDEPSTLVNSDHELSDDALKYKNAAAEFKAFERRMDSMRSASTITTSLATPSSCAPSNSSEPPTRSTPIMNDLGVGPNNHNWPSSMQELSGISLETPQARPLGSNRINQLVRSEAQTGISLLQHHERPTVTAPLRRNDMMNSSRQNPQNGNVQDENRPEHVYDQPIHVPGSSLDRQKLEIEIRRHRNLNIQLRDTIAHLDYAEESVHTTKRQLEEKISEVNNFKKELIEEFKKCKKGVEEEFEKKFEKIKEDYDELYEKLKRDQRDLERDQKILKKGTGERNKEFTETIATLRDKLRASETKNAQYRQDIRVRDEKLKKKDEEIEKLQKDGNRLKSTLQTLEKRVKQLRTEKERDDKEKEMFAKVAMNRKTSNPVPPVLNQSVPISITSNGPSRHPSSSSLTTFRKPSTSNRERGVSWADEPNEQSLEAVPQEFLMMPVKEMPGKFGKCTIYRDSLGETSKVTDTIANGLLFEYSNGDLRWVNRQNAVNIYISAVDKTVRIDLPTYNISIIHTFQRQVEVLRPGNNITLISIKRREVRTDLIYQNGMYKTEIFNRDGRYVTKDFSNQEVSRKYNPGTHTYRDNQCRYVLVTDYNDFELVEPEFRLRWYQGDPTGLNNQYILKIIGRPECSEKTLRLEVNLSTCEGTLETAEMIGDKRRKTTLFQWKK | not soluble
15 | MPANKLVALTFDDGPDNVLTARVLDKLDKYNVKATFMVVGQRVNDSTAAIIRRMVNSGHEIGNHSWSYSGMANMSPDQIRKSIADTNAVIQKYAGTTPKFFRPPNLETSPTLFNNVDLVFVGGLTANDWIPSTTAEQRAAAVINGVRDGTIILLHDVQPEPHPTPEALDIIIPTLKSRGYEFVTLTELFTLKGVPIDPSVKRMYNSVPLEHHHHHH | soluble
16 | RQIQKKIESGELKAAPEIVEADAECCGQHEICEKESLLAAVSKKIEYYDDEELDRFRGRPSNGYNEEEVEEFREIMYTCKEDEVAGWSRSLQLRGIELPDELKDELFLIVGERRFK | not soluble
17 | MKPDSNGVYAYDMKISKKLTMAYKNDNPAKHATPVDYDYKTQTWSKREPNQLMDCFQNYSFNHISDPGDANRMEDVLVVDGLHKRVISINGDMPGAPVVVPYMSEVWIRVSNQILMDSMTIHVHGIDKHGMWYMDGVAFVQQCPIQSTNKFEYRFIADNKGTHWYHGHMQTDRGDGIAGGFIVVDQNDTSVPTLDDRKRIVPSREYFFLLQDWATKVGEEAWMQLEDKTMKWMYGYDDFTKCWEPTRTSDGGNVGGAVPISAILLNDKGWYDHDIIKSQPFNLPLERFQIKPNEDILFRIVNGGVAQELMLYVEGHPMTVVAADGDEVVPMKVDRLIVFPGERYDILIKGLATPTKKSYRIQVETVQKYFFDWKEIPIVYGFGYIEYETDGLPEDKTTPNLMHPECTQNKKCTVLNCPFQEWMAQPNFTCISYDKLENPNPEKIEAEILQATQFNGGFEEHFINMHHDSQMDQFLFQFPWGIPYYHDGDMETISTSCSQTACANNSMSDLDTTCRCFYHLEHKLNNIVQITLYNMGLGGAMGTGYAHPFHLHGHHFYVMKVGWPSYNGSGFIDQMNQDIDCPGRDVSCNGKKWRNKDWLGGALEAMNTKNPTKRDTITLPVGGYITIRFRAVNPGWWFAHCHLELHLMGGTGYAYKVGDQNQIYMPPDNFPHDCGVFKVDKLPELRLPTQKSSNIPYTFIAVCLVLIIDRIFH | not soluble
